Source: doi:10.1101/2021.06.15.448552 (bioRxiv, 2021)
Several values for one entry are separate records, joined by “and”; a condition that tells them apart may be missing. Identical values can stand only once.

Key:
[1] = biological target: borneol-type dehydrogenase SrBDH1 from Salvia rosmarinus (S. rosmarinus); test: SEC-MALS
[2] = biological target: borneol-type dehydrogenase SrBDH1 from Salvia rosmarinus (S. rosmarinus); test: cryo-EM structure
SEC-MALS = biological target: the molecule itself; test: SEC-MALS

stoichiometry N [1]	stoichiometry N [2]	Molecule	stoichiometry N (SEC-MALS)
4	4	borneol-type dehydrogenase SrBDH1 from Salvia rosmarinus (enzyme)	–
–	–	borneol-type dehydrogenase SoBDH2 from Salvia officinalis (enzyme) MATGAANVESPQSLPLRLLGRVALVTGGSSGIGESIVLLFRKHGAKVCIADVQDNQGQRLCETLGGSSDIAFCHCDVTIEDDVKRAVDFTVDKFGTLDIMVNNAGVSGPPCPDIRDFELSAFDRVFDINVRGVFIGMKHAARIMIPAKKGSIISISSVASTMGGLGPHAYTGSKHAVLGLTKNVAAELGKHGIRVNCVSPYAVATSLALAHLPEAERTEDTWDDFRRFVADNANLQGVELTMEDVANAVVFLASDEARYVSGMNLMVDGGFTSTNHALQVFRP	8 and 4
